Assay results published in the supplement of paper PMC12042874.
± gives the uncertainty stated by the source.

test: amyloid nucleation score (Sup35N fusion, yeast selection) (log enrichment); library NNK2; higher = more nucleation; inactive = no reads after selection
Procedure, shortened: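 Sup35N was fused to peptides of 20 random codons and expressed in psi-negative yeast, which were induced with 100 μM copper sulfate for 24 hours and then grown on medium lacking adenine and uracil for 7 days at 30°C. Plasmid inserts from input and output were sequenced on Illumina. The nucleation score is the DiMSum log enrichment of output over input reads, centred on the mode score of non-aggregating sequences. Sequences with under 100 input reads were left out, and random libraries had three technical output replicates.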

Substance	amyloid nucleation score
YMPPSCMSP	inactive
YMSGILASIRKSILQGRSRE	-1.41 ± 0.49
YMTSD	-0.464 ± 0.41
YMVCLRSGSIPVIDLPWYSL	-0.12 ± 1
YMVDIGSHYKVCVMFHWTFS	-0.88 ± 0.45
YMVGVSITMCCRATLNFSSM	5.21 ± 0.06
YMYPWGP	0.693 ± 0.28
YNASVDVLHY	-0.146 ± 1
YNGTTLMMGDIGSCSFI	-0.787 ± 0.38
YNKLRPGATCHLETWS	-0.614 ± 0.79
YNLCWCRVIDFCLCWYCILW	4.94 ± 0.081
YNLESLNFMLCSLRTQGKFR	0.149 ± 0.25
YNLSSLLRCDLAAKTRTIFM	-0.575 ± 0.35
YNMIYYQLNTMLVHDMIKYG	3.56 ± 0.073
YNRRLYRIACVGIVNVNGVG	5.902 ± 0.042
YNSMSVSILNVYYDQPWSLS	8.768 ± 0.049
YNSRNIEDFFVIDLVNWLRL	-1.24 ± 1.1
YNTVVVPDVMTGRF	-0.599 ± 1
YNVMDVMYYAQKWLLWWSKV	-0.353 ± 0.41
YPLGS	inactive
YPNTLFHWEAS	0.359 ± 0.29
YPSLNDACQP	-0.394 ± 1.1

Substance	amyloid nucleation score
YPWLRIWCDRNDIEVGLVFA	-0.055 ± 0.79
YQLRCKCSTF	-0.757 ± 0.41
YQPRAYGKSPSIQFGQIVKQ	0.106 ± 0.31
YQSDLTYLE	-0.518 ± 0.35
YQSFFVINLYNGLHTRGMRV	7.701 ± 0.055
YQSPCVTVVSGKRALPRGGR	-0.001 ± 0.28
YQTWDSYVRSTCVYITCPWY	7.133 ± 0.059
YREHQKVRFSSLISSIGVLM	-0.004 ± 0.49
YRGYAPIYLHLRSSYVPVAL	-0.319 ± 0.35
YRIQKHWCQLS	-0.087 ± 0.76
YRLFSRWAVVRFMGVGSLSF	-0.691 ± 0.56
YRQRFVRKARSFYLWVMALP	-0.409 ± 0.45
YRRLRTNLLWRQSRSY	0.817 ± 0.54
YRRRSKHAVNKGRMCA	1.3 ± 0.28
YRSSHYYQQSIIVFVIMHRC	2.11 ± 0.3
YRVFMVPTWGGS	0.381 ± 0.56
YSASKFTWPCIKTSKCGALC	-1.09 ± 0.63
YSELMFTEVIYTVYYLTFLR	-0.797 ± 0.76
YSFELGDFRMEKLIRDMVKC	-0.932 ± 0.42
YSLRLDVYYRGWADYPGLWT	1.73 ± 0.18
YSMICGLHCSVLFRGNSEGT	4.782 ± 0.039
YSMIDTNQFF	inactive

Substance	amyloid nucleation score
YSMRWFVGGFILGYCVCGQV	6.256 ± 0.037
YSRGMGVSNEMRDYFNKRDI	inactive
YSSPGSSPAFQRFGVVRRMN	inactive
YSTIKIHLPGLVVRNQSLVR	inactive
YSTYRASVGFARRGMPLPIL	0.015 ± 0.76
YSWVEPRSRRAVEHDS	0.551 ± 0.3
YSYPRS	inactive
YTGIESE	0.768 ± 0.21
YTHVNRWTCCSSIEICDWSY	6.957 ± 0.047
YTIIKWPL	-0.21 ± 0.79
YTLFNDASRLFD	inactive
YTLFPAVLECDQVLYVSVNF	6.491 ± 0.037
YTNSMTHAYTVLWRYMSPTN	3.52 ± 0.084
YTRGTNGLWLYRWVMVRGSN	-0.649 ± 0.36
YTSGMFFMPMQALASETPHA	-0.924 ± 0.61
YTSSRGHYSIMGVIRMCDRL	0.118 ± 0.25
YTVWGKY	0.288 ± 0.53
YVANGPFCPDFLLLAGWYGV	0.447 ± 0.53
YVATMGKGLNYLSCLEDNAA	0.282 ± 0.56
YVCVNWTFTFLFLCLVGRSL	0.36 ± 0.22
YVDGFYNGERWRLVLHVWDL	-0.598 ± 0.39
YVLFFHGIMSCTPMQYQYMG	inactive

Substance	amyloid nucleation score
YVLSYSCLDLYSIHL	5.64 ± 0.073
YVNFD	-0.299 ± 0.48
YVPMQY	0.382 ± 0.53
YVPPQWRIVDRNVSY	0.012 ± 1
YVRAGRVNVILCVSENCIGG	8.27 ± 0.049
YVRNFPLGLSV	-1.63 ± 1.1
YVSMLTNLTDLTSM	0.572 ± 0.33
YVSNLEK	-0.073 ± 1
YVTCCSGVGVMLFRCANLNC	5.37 ± 0.082
YVTFMKGIGLSVFSADIQ	1.83 ± 0.2
YVVVINSEQNVETFKGFL	inactive
YVWSAKHSNIDCRVES	0.877 ± 0.36
YWLYMVAHAPKSFIE	0.509 ± 0.8
YWSMSVMVNMKFPCGNCWVR	2.24 ± 0.11
YWYASSSSNIWYPEVCKCPV	-0.77 ± 0.79
YYCTKASTLRSGGFRFMPMT	4.9 ± 0.051
YYEMFCYSCPSDRPGISNDA	8.827 ± 0.035
YYFWSTFGSYNYLIFCYSIL	-0.656 ± 1.1
YYGCCMVLTEPVG	6.29 ± 0.072
